Publication PMC9352680, “A comprehensive thermodynamic model for RNA binding by the Saccharomyces cerevisiae Pumilio protein PUF4”

T1: PUF4 RNA-binding domain (Saccharomyces cerevisiae, UniProt P25339 537-888)
T1 sequence: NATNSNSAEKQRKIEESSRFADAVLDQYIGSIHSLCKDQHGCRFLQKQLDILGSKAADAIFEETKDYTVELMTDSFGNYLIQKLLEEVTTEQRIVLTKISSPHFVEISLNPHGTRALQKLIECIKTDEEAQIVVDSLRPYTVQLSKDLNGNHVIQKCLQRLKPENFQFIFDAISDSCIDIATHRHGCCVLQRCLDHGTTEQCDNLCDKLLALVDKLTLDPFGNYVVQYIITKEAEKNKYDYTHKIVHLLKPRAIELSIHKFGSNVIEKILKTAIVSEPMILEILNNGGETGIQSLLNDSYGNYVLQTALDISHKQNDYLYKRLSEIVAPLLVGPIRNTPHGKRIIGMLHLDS

B1: Ic_S1_P5E.1_K5.1_C5.1_H5.1_A5.1_[T5A]_F5.1_[T9G]_[A10G]_T5.1 (ssRNA)
RNA: UCUCUUUGUAAUAUGGUCUCUU
B2: Ic_S1_P5E.1_K5.1_C5.1_H5.1_A5.1_[T5C]_[T6C]_[A7T]_F5.1_[T8A]_[A10T]_T5.1 (ssRNA)
RNA: UCUCUUUGUACCUAUUUCUCUU
B3: Ic_S1_P5E.1_K5.1_C5.1_H5.1_A5.1_[T5C]_[T6A]_F5.1_[T9A]_[A10G]_T5.1 (ssRNA)
RNA: UCUCUUUGUACAAUAGUCUCUU
B4: Ic_S1_P5E.1_K5.1_C5.1_H5.1_A5.1_[T6A]_[A7T]_F5.1_[T8A]_[A10T]_T5.1 (ssRNA)
RNA: UCUCUUUGUAUAUAUUUCUCUU
B5: Ic_S1_P5E.1_K5.1_C5.1_H5.1_A5.1_[T5C]_[A7G]_F5.1_[T9A]_T5.1 (ssRNA)
RNA: UCUCUUUGUACUGUAAUCUCUU
B6: Ic_S1_P5E.1_K5.1_C5.1_H5.1_A5.1_[T5C]_[T6G]_F5.1_[T8C]_[T9C]_T5.1 (ssRNA)
RNA: UCUCUUUGUACGACCAUCUCUU
B7: Ic_S1_P5E.1_K5.1_C5.1_H5.1_A5.1_[T6G]_[A7G]_F5.1_[T8C]_[A10C]_T5.1 (ssRNA)
RNA: UCUCUUUGUAUGGCUCUCUCUU
B8: Ib_S1_P3E.1_K3.1_C3.1_H3.1_[T1C]_A3.1_[A6G]_F3.1_T3.1 (ssRNA)
RNA: UCUCUUCGUAUGUAUCUCUU
B9: Ic_S1_P5E.1_K5.1_C5.1_H5.1_A5.1_[T6A]_[A7T]_F5.1_[T8A]_[T9C]_[A10G]_T5.1 (ssRNA)
RNA: UCUCUUUGUAUAUACGUCUCUU
B10: Ic_S1_P5E.1_K5.1_C5.1_H5.1_A5.1_[T6A]_[A7T]_F5.1_[T8C]_[T9C]_[A10T]_T5.1 (ssRNA)
RNA: UCUCUUUGUAUAUCCUUCUCUU
B11: Ic_S1_P5E.1_K5.1_C5.1_H5.1_A5.1_[T5C]_[T6G]_[A7T]_F5.1_[T8C]_[A10G]_T5.1 (ssRNA)
RNA: UCUCUUUGUACGUCUGUCUCUU
B12: Ic_S1_P5E.1_K5.1_C5.1_H5.1_A5.1_[T5C]_[T6A]_[A7C]_F5.1_[T8G]_[T9C]_[A10G]_T5.1 (ssRNA)
RNA: UCUCUUUGUACACGCGUCUCUU
B13: Ic_S1_P5E.1_K5.1_C5.1_H5.1_A5.1_[T5A]_[T6A]_[A7T]_F5.1_[T8C]_[T9C]_[A10C]_T5.1 (ssRNA)
RNA: UCUCUUUGUAAAUCCCUCUCUU
B14: Ic_S1_P5E.1_K5.1_C5.1_H5.1_A5.1_[T5A]_[A7G]_F5.1_[T8G]_[A10T]_T5.1 (ssRNA)
RNA: UCUCUUUGUAAUGGUUUCUCUU
B15: Ic_S1_P5E.1_K5.1_C5.1_H5.1_A5.1_[T5G]_[T6C]_[A7T]_F5.1_[T8A]_[T9C]_[A10G]_T5.1 (ssRNA)
RNA: UCUCUUUGUAGCUACGUCUCUU
B16: Ic_S1_P5E.1_K5.1_C5.1_H5.1_A5.1_[T6A]_[A7C]_F5.1_[T8C]_[T9G]_[A10G]_T5.1 (ssRNA)
RNA: UCUCUUUGUAUACCGGUCUCUU
B17: Ib_S1_P3E.1_K3.1_C3.1_H3.1_[T1C]_A3.1_[A6T]_F3.1_T3.1 (ssRNA)
RNA: UCUCUUCGUAUUUAUCUCUU
B18: Ib_S1_P3E.1_K3.1_C3.1_H3.1_[T1A]_A3.1_[A6G]_F3.1_T3.1 (ssRNA)
RNA: UCUCUUAGUAUGUAUCUCUU
B19: Ic_S1_P5E.1_K5.1_C5.1_H5.1_A5.1_[T5G]_[T6C]_[A7C]_F5.1_[A10T]_T5.1 (ssRNA)
RNA: UCUCUUUGUAGCCUUUUCUCUU
B20: Ic_S1_P5E.1_K5.1_C5.1_H5.1_A5.1_[T5A]_[T6C]_[A7T]_F5.1_[T8C]_[T9A]_[A10G]_T5.1 (ssRNA)
RNA: UCUCUUUGUAACUCAGUCUCUU
B21: Ic_S1_P5E.1_K5.1_C5.1_H5.1_A5.1_[T6A]_[A7G]_F5.1_[T8C]_[T9A]_[A10T]_T5.1 (ssRNA)
RNA: UCUCUUUGUAUAGCAUUCUCUU
B22: Ic_S1_P5E.1_K5.1_C5.1_H5.1_A5.1_[T6A]_F5.1_[T8A]_[T9C]_[A10G]_T5.1 (ssRNA)
RNA: UCUCUUUGUAUAAACGUCUCUU
B23: Ic_S1_P5E.1_K5.1_C5.1_H5.1_A5.1_[T5C]_[T6A]_[A7T]_F5.1_[T9C]_[A10G]_T5.1 (ssRNA)
RNA: UCUCUUUGUACAUUCGUCUCUU
B24: Ic_S1_P4E.1_K4.1_C4.1_H4.1_A4.1_F4.1_[A9G]_T4.1 (ssRNA)
RNA: UCUCUUUGUAUAUUGUCUCUU
B25: Ic_S1_P5E.1_K5.1_C5.1_H5.1_A5.1_[T5A]_[T6G]_[A7T]_F5.1_[T8A]_[T9A]_T5.1 (ssRNA)
RNA: UCUCUUUGUAAGUAAAUCUCUU
B26: Ic_S1_P5E.1_K5.1_C5.1_H5.1_A5.1_[T6C]_[A7C]_F5.1_[T8A]_[A10T]_T5.1 (ssRNA)
RNA: UCUCUUUGUAUCCAUUUCUCUU
B27: Ic_S1_P5E.1_K5.1_C5.1_H5.1_A5.1_[T5C]_[T6A]_[A7C]_F5.1_[T8A]_[T9C]_[A10C]_T5.1 (ssRNA)
RNA: UCUCUUUGUACACACCUCUCUU
B28: Ic_S1_P5E.1_K5.1_C5.1_H5.1_A5.1_[T5A]_[T6C]_[A7C]_F5.1_[A10T]_T5.1 (ssRNA)
RNA: UCUCUUUGUAACCUUUUCUCUU
B29: Ic_S1_P5E.1_K5.1_C5.1_H5.1_A5.1_[T6C]_[A7G]_F5.1_[T8C]_[A10G]_T5.1 (ssRNA)
RNA: UCUCUUUGUAUCGCUGUCUCUU
B30: Ic_S1_P5E.1_K5.1_C5.1_H5.1_A5.1_[T5A]_[T6C]_[A7T]_F5.1_[T8A]_[T9A]_T5.1 (ssRNA)
RNA: UCUCUUUGUAACUAAAUCUCUU
B31: Ic_S1_P5E.1_K5.1_C5.1_H5.1_A5.1_[T6C]_[A7G]_F5.1_[T8A]_[A10G]_T5.1 (ssRNA)
RNA: UCUCUUUGUAUCGAUGUCUCUU
B32: Ic_S1_P5E.1_K5.1_C5.1_H5.1_A5.1_[T6C]_[A7C]_F5.1_[T9A]_[A10T]_T5.1 (ssRNA)
RNA: UCUCUUUGUAUCCUAUUCUCUU
B33: Ic_S1_P5E.1_K5.1_C5.1_H5.1_A5.1_[T5C]_[A7C]_F5.1_[T8C]_[T9C]_[A10T]_T5.1 (ssRNA)
RNA: UCUCUUUGUACUCCCUUCUCUU
B34: Ic_S1_P5E.1_K5.1_C5.1_H5.1_A5.1_[T6C]_[A7C]_F5.1_[T8A]_[T9G]_[A10T]_T5.1 (ssRNA)
RNA: UCUCUUUGUAUCCAGUUCUCUU
B35: Ic_S1_P5E.1_K5.1_C5.1_H5.1_A5.1_[T6A]_[A7T]_F5.1_[T8G]_[T9A]_T5.1 (ssRNA)
RNA: UCUCUUUGUAUAUGAAUCUCUU
B36: Ic_S1_P5E.1_K5.1_C5.1_H5.1_A5.1_[T6A]_[A7C]_F5.1_[T8G]_[T9G]_[A10C]_T5.1 (ssRNA)
RNA: UCUCUUUGUAUACGGCUCUCUU
B37: Ic_S1_P5E.1_K5.1_C5.1_H5.1_A5.1_[T5A]_[T6C]_[A7G]_F5.1_[T8G]_[T9C]_[A10C]_T5.1 (ssRNA)
RNA: UCUCUUUGUAACGGCCUCUCUU
B38: Ic_S1_P5E.1_K5.1_C5.1_H5.1_A5.1_[T5C]_[T6C]_[A7C]_F5.1_[T8C]_[T9G]_[A10G]_T5.1 (ssRNA)
RNA: UCUCUUUGUACCCCGGUCUCUU
B39: Ic_S1_P5E.1_K5.1_C5.1_H5.1_A5.1_[T5G]_[T6C]_[A7C]_F5.1_[T9C]_T5.1 (ssRNA)
RNA: UCUCUUUGUAGCCUCAUCUCUU
B40: Ib_S1_P3E.1_K3.1_C3.1_H3.1_[T1G]_A3.1_[A6G]_F3.1_T3.1 (ssRNA)
RNA: UCUCUUGGUAUGUAUCUCUU
B41: Ic_S1_P5E.1_K5.1_C5.1_H5.1_A5.1_[T5A]_[A7G]_F5.1_[T8G]_[A10C]_T5.1 (ssRNA)
RNA: UCUCUUUGUAAUGGUCUCUCUU
B42: Ic_S1_P5E.1_K5.1_C5.1_H5.1_A5.1_[T6A]_[A7T]_F5.1_[T8A]_[T9A]_[A10T]_T5.1 (ssRNA)
RNA: UCUCUUUGUAUAUAAUUCUCUU
B43: Ic_S1_P5E.1_K5.1_C5.1_H5.1_A5.1_[T5A]_[T6C]_[A7G]_F5.1_[T8A]_[A10G]_T5.1 (ssRNA)
RNA: UCUCUUUGUAACGAUGUCUCUU
B44: Ic_S1_P5E.1_K5.1_C5.1_H5.1_A5.1_[T5C]_[A7T]_F5.1_[T8C]_[T9C]_[A10C]_T5.1 (ssRNA)
RNA: UCUCUUUGUACUUCCCUCUCUU
B45: Ic_S1_P5E.1_K5.1_C5.1_H5.1_A5.1_[T5A]_[T6A]_F5.1_[T8C]_[T9A]_[A10C]_T5.1 (ssRNA)
RNA: UCUCUUUGUAAAACACUCUCUU
B46: Ic_S1_P5E.1_K5.1_C5.1_H5.1_A5.1_[A7G]_F5.1_[T8C]_[T9C]_[A10T]_T5.1 (ssRNA)
RNA: UCUCUUUGUAUUGCCUUCUCUU
B47: Ic_S1_P5E.1_K5.1_C5.1_H5.1_A5.1_[A7T]_F5.1_[T8A]_[T9A]_T5.1 (ssRNA)
RNA: UCUCUUUGUAUUUAAAUCUCUU
B48: Ic_S1_P5E.1_K5.1_C5.1_H5.1_A5.1_[T5C]_[T6C]_[A7T]_F5.1_[T8C]_[T9C]_[A10C]_T5.1 (ssRNA)
RNA: UCUCUUUGUACCUCCCUCUCUU
B49: Ic_S1_P5E.1_K5.1_C5.1_H5.1_A5.1_[A7C]_F5.1_[T8C]_[A10C]_T5.1 (ssRNA)
RNA: UCUCUUUGUAUUCCUCUCUCUU
B50: Ib_S1_P3E.1_K3.1_C3.1_H3.1_[T1G]_A3.1_[A6T]_F3.1_T3.1 (ssRNA)
RNA: UCUCUUGGUAUUUAUCUCUU

These binders were tested against T1, PUF4 RNA-binding domain (assay: Mg; RNA-MaP; 20 mM Na-HEPES pH 7.4, 30 mM KOAc, 0.75 mM MgCl2, 0.1% Tween-20, 5% glycerol, 0.1 mg/mL BSA, 2 mM DTT; 25 C; 0.0125-409.6 nM protein). Conditions: tags: N-His6-TEV cleaved; C-SNAP kept, Cy3B-labelled; label: tethered on chip by stalled RNA polymerase.
Binder B1 has a Kd of 10.1 nM. B2 showed a Kd of 48.7 nM. B3 was tested, and the Kd was 0.742 nM. Work on B4 yielded a Kd of 7.35 nM. In the case of B5, the Kd is reported as 7.89 nM. With B6 the Kd was 1000 nM. With B7 the Kd was > 2300 nM. Work on B8 yielded a Kd of 932 nM. Work on B9 yielded a Kd of 14.9 nM. Work on B10 yielded a Kd of 24 nM. B11 showed a Kd of 697 nM. Work on B12 yielded a Kd of 709 nM. Work on B13 yielded a Kd of 240 nM. Binder B14 has a Kd of 1060 nM. B15 was tested, and the Kd was > 2300 nM. For B16, the Kd was 470 nM. For B17, the Kd was > 2300 nM. In the case of B18, the Kd is reported as 381 nM. B19 showed a Kd of 470 nM. In the case of B20, the Kd is reported as 175 nM. B21 gave a Kd of 32.4 nM. Work on B22 yielded a Kd of 378 nM. B23 gave a Kd of 9.95 nM. B24 showed a Kd of 3.06 nM. B25 showed a Kd of 2150 nM. Binder B26 has a Kd of 119 nM. Binder B27 has a Kd of 76.8 nM. B28 showed a Kd of 49.8 nM. B29 gave a Kd of 978 nM. B30 showed a Kd of 506 nM. For B31, the Kd was 859 nM. For B32, the Kd was 5.11 nM. B33 was tested, and the Kd was 496 nM. With B34 the Kd was 1040 nM. With B35 the Kd was 19.4 nM. With B36 the Kd was 460 nM. In the case of B37, the Kd is reported as > 2300 nM. For B38, the Kd was > 2300 nM. Binder B39 has a Kd of 721 nM. For B40, the Kd was 723 nM. Work on B41 yielded a Kd of 1800 nM. Binder B42 has a Kd of 4.21 nM. In the case of B43, the Kd is reported as 1000 nM. In the case of B44, the Kd is reported as 782 nM. Binder B45 has a Kd of 56.4 nM. B46 was tested, and the Kd was 652 nM. For B47, the Kd was 106 nM. In the case of B48, the Kd is reported as 414 nM. B49 gave a Kd of 132 nM. B50 was tested, and the Kd was > 2300 nM.
